{
  "source": "patent US20160206764A1",
  "about": "(ONCOINVENT, published 2016)",
  "key": {"[1]": {"target": "CD146 (melanoma cell adhesion molecule (MCAM), cell surface glycoprotein MUC18), endogenous on human tumor cell lines (human) (UniProt P43121)", "assay": "MelJRpost3.3 cells pre-treated with OJ97cMUC18; competitor/tracer ^125I-OI-3"}, "[2]": {"target": "T1, CD146 (melanoma cell adhesion molecule (MCAM), cell surface glycoprotein MUC18), endogenous on human tumor … (human, UniProt P43121 24-646)", "T1 construct": "whole, on cells; Also used here for the endogenous protein in lysates and tissue sections of these cells (Western blot, immunoprecipitation, IHC); also called Mel-CAM", "assay": "saturation binding of ^125I-OI-3 to Mel 3.3 melanoma cells, Ka=1/Kd"}, "[3]": {"target": "T1, CD146 (melanoma cell adhesion molecule …)", "assay": "saturation binding of ^125I-OI-3 to Mel 3.3 melanoma cells, Scatchard plot"}, "[4]": {"target": "T1, CD146 (melanoma cell adhesion molecule …)", "assay": "saturation binding of ^125I-OI-3 to Mel 3.3 melanoma cells, interpolation of binding plot at half βmax"}},
  "data": [
    {"molecule": "commercial murine monoclonal anti-CD146 (OJ79c MUC18) (antibody)", "values": [
      {"measurement": "specific binding in % of ^125I-OI-3 after pre-treatment (no pretreatment = 100%)", "setting": "[1]", "value": 101, "unit": "%"}
    ]},
    {"molecule": "OI-3 murine monoclonal antibody (antibody, V domains shown, also called ^177Lu-OI-3) VH: EVQLQQSGPELVKTGASVKISCKASGYSFTGYYIHWVKQSHGKSLEWIGYISNYNGATTYSQEFKGKATFTVDRSSRIAYMQFTGLTSEDSAVYYCAGNSWGDWYFDVWGAGTTVTVSS VL: DVVMTQTPLSLPVSLGDQASISCRSSQSLVHSNGNTYLHWYLQKPGQSPKLLIYKVSNRFSGVPDRFSGSGSGTDFTLKISRVEAEDLGVYFCSQSTHVSTFGGGTKLEIK", "values": [
      {"measurement": "Ka", "setting": "[2]", "value": "~3.2e+08", "unit": "M⁻¹"},
      {"measurement": "Kd", "setting": "[3]", "value": "~3.1", "unit": "nM"},
      {"measurement": "Kd", "setting": "[4]", "value": 3.1, "unit": "nM"}
    ]}
  ]
}
